Test results as given in the DeepSol protein solubility set.

experiment: soluble on expression in E. coli; label from the status in PepcDB or PDB records

Sequence	soluble on expression in E. coli
MSRLEAWAYLSRVFEGPSRSLQKLLETESDVEKIAWGIKKREAWLGPILFETASRYSVSLEQEDLTTIKNLGGRLVTPDDDEWPREKFETAFGFAASGTSSLVRSYQSDAVAPHALWVRGAPLSTTVDRSVAIVGTRAMSHYGKSATSMLAAGIADHHWTIVSGGALGVDTVAHTEALQRQKPTVAVCARGLDAPYPRKNAELLRSIVETGCLVSEYAPGLTPHRHRFLTRNRLVAALSQGTVVVEAAWRSGALNTLSWASALGRVAMAVPGPVTNTGSLGCHERIRNKEAELVCSAEEILALVGTLGEFDPNGQYELQFAADPIQSLSRNEMRVFDSLDANPHTTDTVAAAAGIPIGLCVHILRDLEKKQLVMREGAHWHRC	not soluble
MSRLEIYSPEGLRLDGRRWNELRRFESSINTHPHAADGSSYMEQGNNKIITLVKGPKEPRLKSQMDTSKALLNVSVNITKFSKFERSKSSHKNERRVLEIQTSLVRMFEKNVMLNIYPRTVIDIEIHVLEQDGGIMGSLINGITLALIDAGISMFDYISGISVGLYDTTPLLDTNSLEENAMSTVTLGVVGKSEKLSLLLVEDKIPLDRLENVLAIGIAGAHRVRDLMDEELRKHAQKRVSNASAR	not soluble
MSRNLDSPVQTQMAVAVFKTPLTGASKMEGKQHHKHQHLQRQSSGRRVFVQTETGCVLGMELDRSDNVHTVKRRLQIALNFPTEESSLTYGDMVLTNDLSAVRNDSPLLLKRNFMHRSSSTPCLSPTGRDLQQKDRSGPIEILGHSDCFSIVKHMVKDIVKAMKMGVEPLPVHSGLGGAYYFRNKRGESVAIVKPTDEEPFAPNNPKGFVGKALGQPGLKSSVRVGETGFREVAAYLLDYGRFANVPPTALVKITHSVFNVNDGVKGNKPREKKLVSKIASFQKFVAHDFDASDHGTSSFPVTSVHRIGILDIRIFNTDRHGGNLLVKKLDGVGMFGQVELIPIDHGLCLPETLEDPYFEWIHWPQASLPFSDEEVDYIQSLDPVKDCDMLRRELPMIREACLRVLVLCTIFLKEASAYGLCLAEIGEMMTREFRPGEEEPSELEVVCIEAKRSVTERDVFSPRSDVVGEAEFQFDLDCDDLESVYSSKIQLTDDYFTKNPFSNGRSSLGKLEESIKEEEEDEEEEEDKTENTVPMIIMKDSFFSSAAFHDKAPSLSKLSTSMKNTHLSDTTRKNPKPLTRGKSENTSSGHKSANEQLPVSASFVKVADMKEDEWVLFLERFQELLGPAFAKRKTATLSKRQRLGTSCQF	not soluble
MSRSEFPNSKCLICGSICTAKFHFGGLSCNACASFFRRTVSLNIRYLCKNSNNCITSPGQRTFCKACRYESCVDKAGMKRDFVQQRRSTNATPKYILNSTSGSSNREVVRGFITDSNSHLVTQTDHLRNIDNNEHCKDMKKYSDLLEISHMNLLRFYVKQVEPEKKELKNILQIKSINDLMITCAYDNGSAMESCVHCPGTGKLSQEDVRLLQKSFQFAHTWLDSTWQYSIATDIDESEVSGESENLSQFISHIKSTLGACLANLKLDVYEFAAFKSFCVWSIGAQGATESMKVVAQEHYEAVASALKMYYKTFTSMSDSEIATRIEEISFGRSSDVQMIYDETIKLYNKIGIPKSLFFEGN	not soluble
MSRTQFEPAETYTAYTAYDEAYEAHEAYEAHEAYEAHETYERPAPYDLHSAPTLPYGGTYPSAPPPVHEPTVPALPRQSDGRAERRRRARGAGRADASLRRLVPRALVVAFLAGGTTAFVAKDKAVELTVDGSPRTLHTFADDVSELLAEEGVQVGAHDVIAPAPGTPLTSGEDVTVHHGRPVLLTLDGHRRQVWTTAGTVAGALRQLGVRTQGAYLSTGPSRRIGREGLALVVRTERVVTVMADGRTRTVRTNAATVGEVVEEAGITLRGEDTTSVPATGFPRDGQTVTVLRITGSQEVREDPIPFDERRAEDASLFRGTEVVQEAGRPGLRRTTYALRTVNGVRQKPRRLRTEVVREPSPRIVRVGTRPRPASVHGADHLNWQGLAACESGGRADAVDPSGTYGGLYQFDSATWHGLGGEGRPEDASAAEQTYRAQKLYVRSGADAWPHCGARLRELEHHHHHH	not soluble
MSRYGKNLVHYIIVEHDDQRGQKPIDDDDEKNFYYHCSFTFETFFRATAFLLAPAVCAVREVPCRLTRTRYNATEYIEGYGWMISLQQGLGVAEFYRPWPLSVQLQRYTTPSRRSRFAVLTPQRKCHQNEANGQDLSLLILLSRIYPLCSNTSQTRRVAARKGKLS	not soluble
MSSAAKNFYQVVKSAPKGRFKGIKRDYTVEDVLKLRGSIDIDYTLATRGANKLWQLLHTEPFVPALGAQTGNQAVQMVRAGLKAIYLSGWQVAADANSAGDMYPDQSLYPANSGPELAKRINRSLRRADQIEACEAEDYLAQRDWYAPIVADAEAGFGGALNCFELMKAYIEAGAAGVHYEDQLGSEKKCGHMGGKVLIPTAQHIRHLNASRLAADVCGVPTIIVARTDAESSRLLTSDIDPRDHPYIDYEAGRTIEGFYRLKDSTAIQYCIDRAIQYAPYTDLIWMETSHPTIADAREFAEGVHKQYPDKMFAYNCSPSFNWKKHLSPSQMEKFQKELGAMGFKYQFITLAGYHANSYSMFDLARNYKEKGMLAYSGLQEGEFAAEKHGYTAVKHQREVGTGYFDAVSRAVTGGLSSTTALSGSTEEAQFQTAVASQDEEILSLTAQNVAGDEKILTPDALRFLHDLNTEFNPRRLRLLSKRNQVQADINNSLWFPDFNKETEVLRSDQGWKGAEIPRDLQDRRVEITGPTDRKMVINAMNSGANVFMADFEDSNSPTWRNQLEGQINLYDAVRNNISYTHPTTKKEYTLNEKHAVLKVRPRGWHLPEKHVLIHNQPTSGSLFDFGLFVFHNAKALIAQGSGPYFYLPKLQSAEEAQLWADVFKYTEDKLGLARGTIKCTVLIEHLLASFQLHEIIHALKDNIVGLNCGRWDYIFSYIKTFQNHRKFLLPDRFQIGMTAPFMRNYSLEVIKACHLRGIHAMGGMAAQIPIKHDQVANDKAFALVRADKEREATDGHDGTWVAHPGLVPLAKRVFDQMMPKPNQISKNLTRANCTKEDLTVIPEGTRTEAGFRHNISVTLGYLDSWLRGTGCVPLYNLMEDAATAEISRAQLWQWLHHDAKLEDGRTIDAGLVKQTIAAETERRLIRAGSVVNRIPEAADLLEKFVTEEKMSDFLTTDAYDRLVSEGY	not soluble
MSSAGVALSPVRSEPLIMPLVRANSCLDSYPDDTIMIYLTLPGSVIPMRVLESDSIESVKLRIQSYRGFVVRNQKLVFGGRELARSNSNMRDYGVSEGNILHLVLKLSDLQVLDVKTTCGKHCRFHVERGRNIGYVKKQISKKRGDFVDPDEQEILYEGEKLEDQSLINDICRNDDSVLHLLVRRSAKVRVKPVEKNFELSIVAPQAKDKKGREAKSIVPPKKLSLEPVVVNSKAKVPLVVKDMIQSASDGLKSGNSPVRSSEGTGGAYFMQGPSGNKFVGVFKPIDEEPMAENNPQGLPLSPNGEGLKKGTKVGEGALREVAAYILDHPKSGNKSMFGEEIGFAGVPPTAMIECLHPGFNHPKGIKTKIGSLQMFTENDGSCEDMGPLSFPVEEVHKISVLDIRLANADRHGGNILMTKDESGKLVLVPIDHGYCLPESFEDCTFEWLYWPQARKPYSAETQEYIRSLDAEEDIDLLKFHGWKMPAETAQTLRISTMLLKKGVERGLTAFEIGTIMCRETLSKKSLVEEMVEEAQEAVLPGTSEAAFLEALSDVMDYHLDHSQEH	not soluble
MSSEAVAQATAATTSPEHGVPTSSATPTPPPSKGGGAGGGGGGEQQQVPFQMIPPGHFFANPFLNPYIPTAGAPAQEGEAQPQMVFSPAQYQEVMHHYFQQMMAASGAQFPIPFPMQFQPALQQPRPSSQASSSHRSEDDNGRQTAGSVVSSNVSPNHREVRPAEDSTETSGVVQNNDELLVPTSTSSDVTIGDVIEKSDSPENSQESAGGEEKSEEKRKLSGDRTDSLIRKQMSEMEKEITRRSQNKNIKTSGLSYTAPAPPSTEKSAPKESLNQLRSSFNLPDDSTTVGPVGPSTVPQQSQQFANNSMFMANAGNFVQNAFPIGVTMTPQATFGAAPGFQMMQPHQHNLFMQQPNPTFVNNGTNPFLQTQATLPNFVQNGTAPLVPTVSAQQFTPEQLAAAFAQQQIAQSAAPTPFDSPPPSMPSTSSGPSGALAPPPPPSHPIPRRVSGNGWPEENKENGTSTSTTNGAQSVPAAAGTDDPVWVLRDSYLKKMQREQRTSEEEEMSWQEAATAAQEAAENGGGDDQEEQETDRLLNGGTTGASTKGAERRGSVDKKKNSKETMVHEPAVLIEGVLFRARYLGSTQMLCESRGSKAARMAQAQEAVARVKAPEGDVQPSTEIDLFISTEKIMVLNTDLQRISDTDVRQDILMDHALRTISYIADIGDLVVLMARRMSTSHSDESCSDGDSSGGGVRKTPKVICHVFESDEASFIAQSIGQAFQVAYVEFLRANGIDDPSYLRQIDYQEVLNSQELLGDELEMFAKKETQKEVVVPKKAGEPLGIVVVESGWGSMLPTVVLAHMNPVGPAAHSNKLNIGDQIININGISLVGLPLSAAQTQIKNMKTATAVRMTVVSTPPVVEVRIRRPDTKYQLGFSVQNGVICSLLRGGIAERGGIRVGHRIIEINGTSVVAVAHDRIVNMLATAVGEIHMKTMPTSMFRLLTGQEQPQYI	not soluble
MSSEFISKVDKEARRKAANILRDKFLNLVEQLKKGEPLVMEIPMRTLSNAIYDEKRKLLLLGEKKLRRNFLDLNEAKRFMQTVLMASIIYDALVSDEYPTIRDLYYRGKHSLLLKSIEGNKIVSEENTWDEQKESDSVIVDIEVFTSLLREEMLILSKEKGKVVGNLRIRSGNDVIDLSKTGHGAYAIEPTPDLIDFIDVDAEFVLVVEKDAVFQQLHRAGFWKQYKSILITSAGQPDRATRRFVRRLNEELKLPVYILTDADPYGWYIFSVFRIGSISLSYESERLATPDAKFLGVSMGDIFGNSRKKPYLSEAERKNYIIKAKDADIKRAEEIKNYEWFKTKAWQEEINTFLQRKAKLEIEAMASKGLKFLAFQYIPEKITNKDYIA	soluble
MSSERACMLCGIVQTTNEFNRDGCPNCQGIFEEAGVSTMECTSPSFEGLVGMCKPTKSWVAKWLSVDHSIAGMYAIKVDGRLPAEVVELLPHYKPRDGSGSATIWGVRCRPGKEKELIRKLLKKKFNLDRAMGKKKLKILSIFQRDNYTGRIYIEAPKQSVIEKFCNGVPDIYISQKLLIPVQELPLLLKPNLEHHHHHH	soluble
MSSIEWNEKTFAKFAYLSDPRTKGELVAYVLTKANLKDNKYENTIVIENLKNNARRFIENATMPRISPDGKKIAFMRANEEKKVSEIWVADLETLSSKKILEAKNIRSLEWNEDSRKLLIVGFKRREDEDFIFEDDVPAWFDDLGFFDGEKTTFWIFDTESEEVIEEFEKPRFSSGIWHRDKIVVNVPHREIIPQYFKFWDIYIWEDGKEEKMFEKVSFYAVDSDGERILLYGKPEKKYMSEHNKLYIYDGKEVMGILDEVDRGVGQAKIKDGKVYFTLFEEGSVNLYIWDGEIKPIAKGRHWIMGFDVDEIVVYLKETATRLRELFTWDGEEKQLTDYNDPIFAKL	soluble
MSSIQGYKMKEYSMPTKRYCQTLSLKNNPILIEEYRKIHSEEKAWPEIRAGIRAVGILEMEIYILGSQLFMIIETPLDFDWEIAMDKLSNLPRQAEWEKYVSKFQDCPYLSSSAEKWKLMERMFYLYED	not soluble
MSSKNSLSDKIKITFQYIMPKHAISRLVGKLAAAKMGWLTTKLISMFIKAYGINMNEAKLKKASDFDTFNNFFTRELEEGARIIDNDENTICYPVDGAISQQGDIIDGQLIQAKGFNYSVTSLLGGDEKTAAPFQGGKFSCIYLAPKDYHRIHMPMAATLREMIYVPGELFSVNPLTAQNVPDLFARNERVVAIFDTEMGELAMVLVGATIVASIETTWAGTITPPAGKDIFRWQYPKDGADAITFEKGDEMGRFKLGSTVVSTFAPNMISEFATDAGPGTVTRLGEIYAALDKSASLEHHHHHH	not soluble
MSSLFVVGIGPGSNDLMTPQASLAIERSEYVIGFSLYVSFIKEKFPNKIYISNGMQGEIERAKKAIELARSGHNVSIISSGDAGIYGIAGAVFEILSTLEDNMPEVSVVPGIS	soluble
